Test results reported in PMC12270161.

Columns and labels:
[1] = molecular target: hMPV Fsol (non-stabilised soluble hMPV F, post-fusion control) (human metapneumovirus (hMPV)); experiment: SEC; Superdex 200 Increase 10/300 GL, antigens (40 ug) in PBS; percent of total antigen in aggregate, trimer and monomer fractions by area under the curve
[2] = as above
P03420 = experiment: as above
[3] = molecular target: hMPV F DsCavEs2 (pre-fusion stabilised comparator with foldon) (human metapneumovirus (hMPV) | bacteriophage T4); experiment: as above
[4] = molecular target: RSV F DsCav1 (pre-fusion stabilised comparator with foldon) (respiratory syncytial virus (RSV) | bacteriophage T4) (UniProt P03420); experiment: as above

hMPV Fsol (non-stabilised soluble hMPV F, post-fusion control) (domain or fragment)
stoichiometry N [1]: 3

hMPV Fsol (non-stabilised soluble hMPV F, post-fusion control)
percent trimer (SEC, area under curve) [2]: hMPV Fsol, 25% aggregate, 19% trimer, 56% monomer

RSV F DsCav1 (pre-fusion stabilised comparator with foldon)
percent trimer (SEC, area under curve) (P03420): RSV DSCav1, 69% trimer

hMPV F DsCavEs2 (pre-fusion stabilised comparator with foldon)
stoichiometry N [3]: 3
percent trimer (SEC, area under curve) [2]: hMPV DSCavEs2, 54% trimer

RSV F DsCav1 (pre-fusion stabilised comparator with foldon) (from UniProt P03420 26-524)
stoichiometry N [4]: 3
